In publication PMC4193741 (PLoS ONE, 2014) one finds Kd data, which are given here for two molecules.

The target in assay [1] is T1, GST-fused N1 antigen (N1 epitope of H1N1 influenza virus) (Influenza A virus H1N1, neuraminidase …).
T1 construct: not shown: GST, N-terminal, kept
T1 chain: CRDNWHGSNRPW
Put plainly: SPR; Biacore 3000, CM5 chip; […], PBS running buffer; […]. The conditions noted are these: both partners purified. On the technique in general: In SPR one partner is held on a chip, and binding of the other changes the refractive index at the surface.

Assay [2] has as its target T2, GST-fused PreS2 antigen (PreS2 epitope of HBV) (Hepatitis B virus, PreS2 epitope …).
T2 construct: also called GST-PreS2; PreS2 of HBV; not shown: GST, N-terminal, kept
T2 chain: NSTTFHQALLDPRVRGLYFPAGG
The assay is described as above. The conditions noted are these: both partners purified.

For orientation: Kd means the constant that tells how readily two partners part at equilibrium. Low values mean higher affinity, high ones lower affinity.

B1: S5 scFv (scFv, V domains shown)
VH: EVQLLESGGGLVQPGGSLRLSCAASGFTFSNYCIGWVRQAPGKGLEWVSPINSNNSNTEYADSVKGRFTISRDNSKNTLYLQMNSLRAEDTAVYYCARCSLPQISHFDYWGQGTLVTVSS
VL: EIVLTQSPGTLSLSPGERATLSCRASQNVSNYVSWYQQKPGQAPRLLIYDISTLQTGIPDRFSGSGSGTDFTLTISRLEPEDFAVYYCPKRVSTGGTFGQGTKVEIK
Regarding B1, in assay [1], the dissociation constant Kd amounted to 11 nM.

B2: SP1 scFv (scFv, V domains shown)
VH: EVQLLESGGGLVQPGGSLRLSCAASGFTFSDYAMYWVRQAPGKGLEWVSGIDINGSNTKYADSVKGRFTISRDNSKNTLYLQMNSLRAEDTAVYYCARKYNHNNHQNTTNFDYWGQGTLVTVSS
VL: EIVLTQSPGTLSLSPGERATLSCRASQNSSSYLSWYQQKPGQAPRLLIYYTSKLESGIPDRFSGSGSGTDFTLTISRLEPEDFAVYYCETVPSLLGVFGQGTKVEIK
notes: also called clone SP1; anti-PreS2 SP1 scFv
B2: the Kd in assay [2] turned out to be 11.5 nM.
